Here are results for one molecule from patent publication US20190218308A1 (INNATE PHARMA, published 2019).

Assay [1] has as its target T1, human CD39 (NTPDase1, ENTPD1), membrane-bound, on cells (human, UniProt P49961 1-510).
T1 construct: Expressed on CHO cells, Hek-293T cells (wild type) or endogenous on Ramos cells; also called huCD39; CHO-huCD39
T1 sequence: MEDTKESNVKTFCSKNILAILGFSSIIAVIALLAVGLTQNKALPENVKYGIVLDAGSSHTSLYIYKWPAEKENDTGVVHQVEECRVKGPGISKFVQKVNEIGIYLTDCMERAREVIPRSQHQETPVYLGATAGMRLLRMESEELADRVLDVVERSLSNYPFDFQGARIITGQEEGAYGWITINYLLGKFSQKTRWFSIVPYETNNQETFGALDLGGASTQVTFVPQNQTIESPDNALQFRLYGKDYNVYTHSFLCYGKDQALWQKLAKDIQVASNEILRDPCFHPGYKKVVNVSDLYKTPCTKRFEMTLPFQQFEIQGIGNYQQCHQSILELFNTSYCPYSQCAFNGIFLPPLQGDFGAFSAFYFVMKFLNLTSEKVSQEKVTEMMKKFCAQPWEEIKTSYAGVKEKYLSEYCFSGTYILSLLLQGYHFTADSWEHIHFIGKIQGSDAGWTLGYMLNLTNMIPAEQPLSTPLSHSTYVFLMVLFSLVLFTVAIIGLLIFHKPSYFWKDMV
Description: flow cytometry on Ramos lymphoma cells, first set of experiments. The method, then:
(§1) Cells were incubated with various concentration of unlabeled anti-CD39 antibody from 30 μg/ml to 5×10⁻⁴ μg/ml, for 30 minutes at 4° C. After washes, cells were incubated with Goat anti-mouse H+L labeled secondary antibody for 30 min at 4° C.

Assay [2] addresses T1, human CD39 (NTPDase1, ENTPD1), …. Description: flow cytometry on Ramos lymphoma cells, second set of experiments. The method, then: as §1
The target of assay [3] is T2, Human CD39-L2, also known as NTPDase6 or ENTPD6 (human, UniProt O75354 61-484, limits assumed).
T2 construct: Recombinant protein coated in ELISA
T2 sequence: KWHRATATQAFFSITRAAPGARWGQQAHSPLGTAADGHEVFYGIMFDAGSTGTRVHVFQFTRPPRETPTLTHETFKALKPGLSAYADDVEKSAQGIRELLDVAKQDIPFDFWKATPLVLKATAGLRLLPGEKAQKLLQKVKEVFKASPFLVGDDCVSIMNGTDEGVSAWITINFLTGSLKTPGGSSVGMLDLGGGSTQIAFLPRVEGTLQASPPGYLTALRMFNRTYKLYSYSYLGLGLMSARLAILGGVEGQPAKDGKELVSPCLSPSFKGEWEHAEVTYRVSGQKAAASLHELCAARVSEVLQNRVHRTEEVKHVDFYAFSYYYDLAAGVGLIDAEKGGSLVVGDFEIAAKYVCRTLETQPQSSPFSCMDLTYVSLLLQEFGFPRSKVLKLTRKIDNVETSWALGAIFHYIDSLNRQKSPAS
Description: ELISA on coated recombinant human CD39-L2 (panel huCD39 L2). The method, then: (§2) Wells were washed in TBS Tween 20, and further saturated 2H at RT in TBS Blocking buffer. Dose range concentration of primary antibody was incubated in TBS blocking buffer for 2 h at RT. Wells were washed in TBS Tween 20. […] Optical density was measured on Enspire™ at OD=450.

Assay [4] concerns the target T3, Human CD39-L3, also known as NTPDase3 or ENTPD3 (human, UniProt O75355 44-485, limits assumed).
T3 construct: Recombinant protein coated in ELISA
T3 sequence: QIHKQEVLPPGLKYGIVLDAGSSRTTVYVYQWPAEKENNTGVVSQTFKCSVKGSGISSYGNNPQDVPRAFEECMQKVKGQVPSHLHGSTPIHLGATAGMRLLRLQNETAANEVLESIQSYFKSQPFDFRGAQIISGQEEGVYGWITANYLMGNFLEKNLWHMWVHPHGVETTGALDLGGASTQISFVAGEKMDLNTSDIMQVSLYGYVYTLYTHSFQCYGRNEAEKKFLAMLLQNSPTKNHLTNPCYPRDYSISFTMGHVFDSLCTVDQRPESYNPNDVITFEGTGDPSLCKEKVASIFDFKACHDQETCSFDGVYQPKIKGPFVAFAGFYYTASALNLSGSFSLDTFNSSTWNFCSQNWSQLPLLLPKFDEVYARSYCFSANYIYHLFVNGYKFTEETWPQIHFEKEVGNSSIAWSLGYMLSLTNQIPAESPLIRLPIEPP
The assay is described as follows: ELISA on coated recombinant human CD39-L3 (panel huCD39 L3). The method, then:
as §2

Assay [5] has as its target T4, cynomolgus (macaca fascicularis) CD39 on CHO cells (cynomolgus (macaca fascicularis), UniProt A0A7N9DGH8 1-510).
T4 construct: whole, on cells; also called CHO-cyCD39; cynomolgus CD39
T4 sequence: T1 sequence with V47I, F94Y, V221I, I230T, I329V, K368N, A391S, F489V, T490I
The assay is described as follows: flow cytometry titration on CHO cells expressing cynomolgus CD39 (panel CHO-cyCD39). The method, then: as §1

Numbering of substitutions follows the chain as printed.

B1: antibody I-394 (antibody, human IgG1, kappa, V domains shown)
VH: EVQLQQSGPELVKPGASVKMSCKASGYTFTDYNMHWVKQSHGRTLEWIGYIVPLNGGSTFNQKFKGRATLTVNTSSRTAYMELRSLTSEDSAAYYCARGGTRFAYWGQGTLVTVSA
VL: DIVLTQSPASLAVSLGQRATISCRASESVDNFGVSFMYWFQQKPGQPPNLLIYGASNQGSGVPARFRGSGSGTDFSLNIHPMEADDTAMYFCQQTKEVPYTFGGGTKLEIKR
Regarding B1, the values for the half-maximal effective concentration (EC50) in assay [1] and in assay [2] were 0.16 µg/mL and 0.19 µg/mL, respectively. Also, the binding result in assay [3] and in assay [4] was “no binding (tested: about 50 µg/ml)” in each case. For the same molecule, in assay [5], the 50% effective concentration (EC50 (read off the curve)) was around 0.4 µg/mL.
